Measurements: paper PMC8267569, “Development of selective protease inhibitors via engineering of the bait region of human α2-macroglobulin” (The Journal of Biological Chemistry, 2021)

Biological target: the molecule itself
Test: native gel or EMSA; pore-limited native PAGE of purified recombinant A2M; dimers that failed to tetramerize were removed during purification (Fig. S2)

B1: tabula rasa A2M (bait region replaced by 13 Gly-Gly-Ser repeats) (natural protein, human)
chain: SVSGKPQYMVLVPSLLHTETTEKGCVLLSYLNETVTVSASLESVRGNRSLFTDLEAENDVLHCVAFAVPKSSSNEEVMFLTVQVKGPTQEFKKRTTVMVKNEDSLVFVQTDKSIYKPGQTVKFRVVSMDENFHPLNELIPLVYIQDPKGNRIAQWQSFQLEGGLKQFSFPLSSEPFQGSYKVVVQKKSGGRTEHPFTVEEFVLPKFEVQVTVPKIITILEEEMNVSVCGLYTYGKPVPGHVTVSICRKYSDASDCHGEDSQAFCEKFSGQLNSHGCFYQQVKTKVFQLKRKEYEMKLHTEAQIQEEGTVVELTGRQSSEITRTITKLSFVKVDSHFRQGIPFFGQVRLVDGKGVPIPNKVIFIRGNEANYYSNATTDEHGLVQFSINTTNVMGTSLTVRVNYKDRSPCYGYQWVSEEHEEAHHTAYLVFSPSKSFVHLEPMSHELPCGHTQTVQAHYILNGGTLLGLKKLSFYYLIMAKGGIVRTGTHGLLVKQEDMKGHFSISIPVKSDIAPVARLLIYAVLPTGDVIGDSAKYDVENCLANKVDLSFSPSQSLPASHAHLRVTAAPQSVCALRAVDQSVLLMKPDAELSASSVYNLLPEKDLTGFPGPLNDQDNEDCINRHNVYINGITYTPVSSTNEKDMYSFLEDMGLKAFTNSKIRKPKMCGGSGGSGGSGGSGGSGGSGGSGGSGGSGGSGGSGGSGGSETVRKYFPETWIWDLVVVNSAGVAEVGVTVPDTITEWKAGAFCLSEDAGLGISSTASLRAFQPFFVELTMPYSVIRGEAFTLKATVLNYLPKCIRVSVQLEASPAFLAVPVEKEQAPHCICANGRQTVSWAVTPKSLGNVNFTVSAEALESQELCGTEVPSVPEHGRKDTVIKPLLVEPEGLEKETTFNSLLCPSGGEVSEELSLKLPPNVVEESARASVSVLGDILGSAMQNTQNLLQMPYGCGEQNMVLFAPNIYVLDYLNETQQLTPEIKSKAIGYLNTGYQRQLNYKHYDGSYSTFGERYGRNQGNTWLTAFVLKTFAQARAYIFIDEAHITQALIWLSQRQKDNGCFRSSGSLLNNAIKGGVEDEVTLSAYITIALLEIPLTVTHPVVRNALFCLESAWKTAQEGDHGSHVYTKALLAYAFALAGNQDKRKEVLKSLNEEAVKKDNSVHWERPQKPKAPVGHFYEPQAPSAEVEMTSYVLLAYLTAQPAPTSEDLTSATNIVKWITKQQNAQGGFSSTQDTVVALHALSKYGAATFTRTGKAAQVTIQSSGTFSSKFQVDNNNRLLLQQVSLPELPGEYSMKVTGEGCVYLQTSLKYNILPEKEEFPFALGVQTLPQTCDEPKAHTSFQISLSVSYTGSRSASNMAIVDVKMVSGFIPLKPTVKMLERSNHVSRTEVSSNHVLIYLDKVSNQTLSLFFTVLQDVPVRDLKPAIVKVYDYYETDEFAIAEYNAPCSKDLGNA
notes: human alpha2-macroglobulin from its N-terminus to residue 689, the residue before the bait region (residues 690-728); tabula rasa bait region: 13 Gly-Gly-Ser repeats in place of the 39 residues 690-728, told in words; human alpha2-macroglobulin from residue 729, the residue after the bait region, to the C-terminus; Dimers removed during purification; also called A2M TR; A2M tabula rasa
stoichiometry N: 4
